For data set [1], the system named is tumour cell lines. The experiment in a line: Tumour cell line viability, vital dye (trypan blue). To be noted: for activity compared with protein isolated from human milk casein: tumour cell lines. The data set is classed as cell-based. The protocol: The two peaks which are believed to contain MAL were kept separately and tested individually. Testing was carried out as described hereinafter in Example 4. Representative results are set out in Table 1.
(§1) The biological efficacy of the products obtained in the above Examples 1 and 2 above was tested using tumour cell lines as described in Hakansson et al (1995) supra. Cell lines were incubated with samples of the products at various concentrations in cell culture media at 37° C. for various time points. After incubation, the cells are harvested and the cell viability determined using a vital dye (trypan blue).

Data set [2] concerns tumour cell lines. The data set can be described thus: Apoptosis: oligonucleosome length DNA fragments by agarose gel electrophoresis. It counts as cell-based. To be noted: material eluting at MAL position (1 M NaCl). The protocol: as §1
(§2) Oligonucleosome length DNA fragments were detected by agarose gel electrophoresis. Cells (2×10^6) were lysed in 5 mM Tris, 20 mM EDTA, 0.5% Triton X-100 pH 8.0 at 4° C. for 1 hour and centrifuged at 13,000×g for 15 minutes. DNA was ethanol precipitated overnight in −20° C., treated with proteinase K and RNAse, loaded on 1.8% agarose gels and electrophoresed with constant voltage set at 50V overnight. DNA fragments were visualized with ethidium bromide using a 305 nm UV-light source and photographed using Polaroid type 55 positive-negative film.

Data set [3] deals with cancer cells and immature cells. To be noted: cancer cells and immature cells versus healthy cells; cited from earlier work.
A further data set concerns L1210 cells. The experiment in a line: Apoptosis-inducing activity / DNA fragmentation in L1210 cells. The data set is classed as cell-based. To be noted: 0.7 mg/ml. The protocol: as §2
The lipid concentration was defined in “MAL equivalents” as the amount extracted from a defined mass of MAL. […] However, lipids from 0.5 or 1 mg of MAL had no effect on cell viability or DNA fragmentation. […] MAL lipids were not active at concentrations when intact MAL killed the cells.

In the case of “Commercial bovine α-lactalbumin, untreated, MAL Peak 1: first MAL peak from commercial (Sigma) bovine α-lactalbumin run on casein trained column”, the figures for the “Viability of tumour cells” value with tumour cell lines [1] (Dosage 0.3 mg/ml) and with tumour cell lines [1] (Dosage 0.5 mg/ml) were 50% and 0%, respectively.
Consider “Commercial bovine α-lactalbumin, untreated, MAL Peak 2: second MAL peak from commercial (Sigma) bovine α-lactalbumin run on casein trained column”, for which the “Viability of tumour cells” value in the data set on tumour cell lines [1] (Dosage 0.5 mg/ml) and in the data set on tumour cell lines [1] (Dosage 1.0 mg/ml) was 98% in each case.

B1: 2: multimeric product from monomeric bovine α-lactalbumin on matrix pre-run with human milk casein (protein, UniProt P00711 20-142, looked up)
Alpha-lactalbumin: EQLTKCEVFRELKDLKGYGGVSLPEWVCTTFHTSGYDTQAIVQNNDSTEYGLFQINNKIWCKDDQNPHSSNICNISCDKFLDDDLTDDIMCVKKILDKVGINYWLAHKALCSEKLDQWLCEKL
modifications: multimeric form
notes: multimeric product from monomeric bovine α-lactalbumin on matrix pre-run with human milk casein
Take B1: the “activity compared with protein isolated from human milk casein” value in the data set with tumour cell lines [1] was “similar”.

B2: Native, monomeric α-lactalbumin: native human milk α-lactalbumin converted to multimeric form on casein conditioned column, eluting at MAL position (protein, UniProt P00709 20-142, looked up)
Alpha-lactalbumin: KQFTKCELSQLLKDIDGYGGIALPELICTMFHTSGYDTQAIVENNESTEYGLFQISNKLWCKSSQVPQSRNICDISCDKFLDDDITDDIMCAKKILDIKGIDYWLAHKALCTEKLEQWLCEKL
modifications: multimeric form
notes: native human milk α-lactalbumin converted to multimeric form on casein conditioned column, eluting at MAL position
As for B2, the “apoptosis-inducing / biological activity of converted material” value (shortened to “apoptosis-inducing / biological activity”) in the data set with tumour cell lines [2] was “no apoptosis-inducing activity”.

B3: Human α-lactalbumin+, EDTA pre-treated, MAL Peak 2: second peak from EDTA pre-treated human milk α-lactalbumin, casein trained column (protein, UniProt P00709 20-142, looked up)
Alpha-lactalbumin: KQFTKCELSQLLKDIDGYGGIALPELICTMFHTSGYDTQAIVENNESTEYGLFQISNKLWCKSSQVPQSRNICDISCDKFLDDDITDDIMCAKKILDIKGIDYWLAHKALCTEKLEQWLCEKL
modifications: multimeric form
notes: second peak from EDTA pre-treated human milk α-lactalbumin, casein trained column
Turning to B3, the “Viability of tumour cells” value with tumour cell lines [1] (Dosage ca. 1.5 mg/ml) was found to be 98%.

B4: Example 1: multimeric product from commercial monomeric human α-lactalbumin on matrix pre-run with human milk casein (protein, UniProt P00709 20-142, looked up)
Alpha-lactalbumin: KQFTKCELSQLLKDIDGYGGIALPELICTMFHTSGYDTQAIVENNESTEYGLFQISNKLWCKSSQVPQSRNICDISCDKFLDDDITDDIMCAKKILDIKGIDYWLAHKALCTEKLEQWLCEKL
modifications: multimeric form
notes: multimeric product from commercial monomeric human α-lactalbumin on matrix pre-run with human milk casein
For the molecule B4, in the data set on tumour cell lines [1], the “activity compared with protein isolated from human milk casein” value is given as “similar”.

B5: Human α-lactalbumin+, EDTA pre-treated, MAL Peak 1: first peak from EDTA pre-treated human milk α-lactalbumin, casein trained column (protein, UniProt P00709 20-142, looked up)
Alpha-lactalbumin: KQFTKCELSQLLKDIDGYGGIALPELICTMFHTSGYDTQAIVENNESTEYGLFQISNKLWCKSSQVPQSRNICDISCDKFLDDDITDDIMCAKKILDIKGIDYWLAHKALCTEKLEQWLCEKL
modifications: multimeric form
notes: first peak from EDTA pre-treated human milk α-lactalbumin, casein trained column
With B5, in the data set on tumour cell lines [1] (Dosage 1.0 mg/ml), the “Viability of tumour cells” value was 0%.

B6: monomeric α-lactalbumin in the molten globule-like state: converted on clean matrix conditioned with lipids extracted from casein conditioned column; single peak at MAL position (protein, UniProt P00709 20-142, looked up)
Alpha-lactalbumin: KQFTKCELSQLLKDIDGYGGIALPELICTMFHTSGYDTQAIVENNESTEYGLFQISNKLWCKSSQVPQSRNICDISCDKFLDDDITDDIMCAKKILDIKGIDYWLAHKALCTEKLEQWLCEKL
modifications: molten globule form
notes: converted on clean matrix conditioned with lipids extracted from casein conditioned column; single peak at MAL position
As to B6, the “apoptosis-inducing / biological activity” value in the data set on tumour cell lines [2] was “apoptosis-inducing activity”.

B7: Commercial human α-lactalbumin, Untreated, MAL Peak 2: second MAL peak from commercial (Sigma) human α-lactalbumin run on casein trained column (protein, UniProt P00709 20-142, looked up)
Alpha-lactalbumin: KQFTKCELSQLLKDIDGYGGIALPELICTMFHTSGYDTQAIVENNESTEYGLFQISNKLWCKSSQVPQSRNICDISCDKFLDDDITDDIMCAKKILDIKGIDYWLAHKALCTEKLEQWLCEKL
modifications: multimeric form
notes: second MAL peak from commercial (Sigma) human α-lactalbumin run on casein trained column
With B7, the “Viability of tumour cells” value with tumour cell lines [1] (Dosage 1.0 mg/ml) stood at 0%.

B8: Human α-lactalbumin+, Untreated, MAL Peak 1: first peak from human milk α-lactalbumin (ammonium sulphate precipitation), untreated, casein trained column (protein, UniProt P00709 20-142, looked up)
Alpha-lactalbumin: KQFTKCELSQLLKDIDGYGGIALPELICTMFHTSGYDTQAIVENNESTEYGLFQISNKLWCKSSQVPQSRNICDISCDKFLDDDITDDIMCAKKILDIKGIDYWLAHKALCTEKLEQWLCEKL
modifications: multimeric form
notes: first peak from human milk α-lactalbumin (ammonium sulphate precipitation), untreated, casein trained column
B8: the “Viability of tumour cells” value with tumour cell lines [1] (Dosage 1.0 mg/ml) was found to be 79%.

B9: Human α-lactalbumin+, EDTA pre-treatment + EDTA buffer, MAL Peak 1: first peak from EDTA treated human milk α-lactalbumin run with EDTA buffers on casein trained column (protein, UniProt P00709 20-142, looked up)
Alpha-lactalbumin: KQFTKCELSQLLKDIDGYGGIALPELICTMFHTSGYDTQAIVENNESTEYGLFQISNKLWCKSSQVPQSRNICDISCDKFLDDDITDDIMCAKKILDIKGIDYWLAHKALCTEKLEQWLCEKL
modifications: multimeric form
notes: first peak from EDTA treated human milk α-lactalbumin run with EDTA buffers on casein trained column
As for B9, the “Viability of tumour cells” value in the data set with tumour cell lines [1] (Dosage 0.5 mg/ml) and in the data set on tumour cell lines [1] (Dosage 1.0 mg/ml) was 0% throughout.

B10: α-lactalbumin treated with EDTA: EDTA treated α-lactalbumin completely converted to oligomeric form on casein conditioned column (protein, UniProt P00709 20-142, looked up)
Alpha-lactalbumin: KQFTKCELSQLLKDIDGYGGIALPELICTMFHTSGYDTQAIVENNESTEYGLFQISNKLWCKSSQVPQSRNICDISCDKFLDDDITDDIMCAKKILDIKGIDYWLAHKALCTEKLEQWLCEKL
modifications: oligomeric form
notes: EDTA treated α-lactalbumin completely converted to oligomeric form on casein conditioned column
Consider B10, for which, in the data set on tumour cell lines [2], the “apoptosis-inducing / biological activity” value is “significant biological activity”.

B11: Commercial human α-lactalbumin, Untreated, MAL Peak 1: first MAL peak from commercial (Sigma) human α-lactalbumin run on casein trained column (protein, UniProt P00709 20-142, looked up)
Alpha-lactalbumin: KQFTKCELSQLLKDIDGYGGIALPELICTMFHTSGYDTQAIVENNESTEYGLFQISNKLWCKSSQVPQSRNICDISCDKFLDDDITDDIMCAKKILDIKGIDYWLAHKALCTEKLEQWLCEKL
modifications: multimeric form
notes: first MAL peak from commercial (Sigma) human α-lactalbumin run on casein trained column
For the molecule B11, the “Viability of tumour cells” value in the data set on tumour cell lines [1] (Dosage 0.5 mg/ml) and with tumour cell lines [1] (Dosage 1.0 mg/ml) was 0% throughout.

B12: Human α-lactalbumin+, Untreated, MAL Peak 2: second peak from human milk α-lactalbumin (ammonium sulphate precipitation), untreated, casein trained column (protein, UniProt P00709 20-142, looked up)
Alpha-lactalbumin: KQFTKCELSQLLKDIDGYGGIALPELICTMFHTSGYDTQAIVENNESTEYGLFQISNKLWCKSSQVPQSRNICDISCDKFLDDDITDDIMCAKKILDIKGIDYWLAHKALCTEKLEQWLCEKL
modifications: multimeric form
notes: second peak from human milk α-lactalbumin (ammonium sulphate precipitation), untreated, casein trained column
Consider B12, for which, in the data set with tumour cell lines [1] (Dosage 1.0 mg/ml), the “Viability of tumour cells” value is on record as 95%.

B13: Human α-lactalbumin+, EDTA pre-treatment + EDTA buffer, MAL Peak 2: second peak from EDTA treated human milk α-lactalbumin run with EDTA buffers on casein trained column (protein, UniProt P00709 20-142, looked up)
Alpha-lactalbumin: KQFTKCELSQLLKDIDGYGGIALPELICTMFHTSGYDTQAIVENNESTEYGLFQISNKLWCKSSQVPQSRNICDISCDKFLDDDITDDIMCAKKILDIKGIDYWLAHKALCTEKLEQWLCEKL
modifications: multimeric form
notes: second peak from EDTA treated human milk α-lactalbumin run with EDTA buffers on casein trained column
B13: the “Viability of tumour cells” value with tumour cell lines [1] (Dosage 0.5 mg/ml) was determined as 89%; with tumour cell lines [1] (Dosage 1.0 mg/ml) it was 0%.

B14: MAL: oligomeric complex of α-lactalbumin in molten globule-like state, from human milk casein by ion exchange, eluting at 1M NaCl (protein, UniProt P00709 20-142, looked up)
Alpha-lactalbumin: KQFTKCELSQLLKDIDGYGGIALPELICTMFHTSGYDTQAIVENNESTEYGLFQISNKLWCKSSQVPQSRNICDISCDKFLDDDITDDIMCAKKILDIKGIDYWLAHKALCTEKLEQWLCEKL
modifications: oligomeric molten globule form
notes: oligomeric complex of α-lactalbumin in molten globule-like state, from human milk casein by ion exchange, eluting at 1M NaCl
Regarding B14, in data set [3], the apoptotic cell death result was “induces apoptotic cell death in cancer cells and immature cells, but not in healthy cells”. Also, the “apoptosis induction (reduction of cell viability, DNA fragments)” value in the data set on L1210 cells is “induced apoptosis”.

The record behind these values is patent US7053185B1, “Lactalbumin production process” (HAMLET Pharma AB, priority 1997, dated 2006).
